Residue numbers refer to the chain shown, from its start. Numbers in names are those of the source.
T1: Fluorogenic peptide Glu(EDANS)-GDYELQGPEDLA-Lys(Dabcyl), p48/p41 cleavage site of the HOV polyprotein
T1 chain: EGDYELQGPEDLAK

B1: Houston virus protease (HOV Pro), GII.4 norovirus protease, wild-type (protein)
chain: APPSIWSRIVNFGSGWGFWVSPSLFITSTHVIPQGAKEFFGVPIKQIQVHKSGEFCRLRFPKPIRTDVTGMILEEGAPEGTVVTLLIKRSTGELMPLAARMGTHATMKIQGRTVGGQMGMLLTGSNAKSMDLGTTPGDCGCPYIYKRGNDYVVIGVHTAAARGGNTVICATQGSEGEATLE
B2: HOV Pro R112A mutant (protein)
chain: B1 chain with R112A

Target: T1, Fluorogenic peptide …

| Protein | FRET proteolytic activity at pH 8, 6.5 and 5 | kcat/Km, FRET assay at pH 8 | FRET proteolytic activity at pH 6.5 |
| --- | --- | --- | --- |
| B1 | while HOV Pro was active at pH 8, it showed no activity at pH 6.5 and pH 5 | kcat/Km=843.7 M^-1s^-1 |  |
| B2 |  | kcat/Km=1215 M^-1s^-1 | Unlike the wild-type HOV Pro, R112A mutant was active at pH 6.5 |

— patent publication US20190275101
